# B1: GpH7-B3 variant T335_13S/GpL16-k0 (antibody, human IgG1, kappa)
# heavy: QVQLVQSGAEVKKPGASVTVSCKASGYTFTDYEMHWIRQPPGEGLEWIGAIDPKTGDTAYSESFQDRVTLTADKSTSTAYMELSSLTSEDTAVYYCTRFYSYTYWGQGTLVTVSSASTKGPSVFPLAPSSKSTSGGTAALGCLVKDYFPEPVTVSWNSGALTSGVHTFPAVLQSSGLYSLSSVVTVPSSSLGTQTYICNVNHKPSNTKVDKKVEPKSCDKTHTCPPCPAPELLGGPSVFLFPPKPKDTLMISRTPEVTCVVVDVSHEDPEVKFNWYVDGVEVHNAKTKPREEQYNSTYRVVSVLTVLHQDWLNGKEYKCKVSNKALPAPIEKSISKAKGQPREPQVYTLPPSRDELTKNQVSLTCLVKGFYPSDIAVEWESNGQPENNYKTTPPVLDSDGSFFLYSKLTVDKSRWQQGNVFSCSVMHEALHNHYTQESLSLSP
# light: DIVMTQSPLSLPVTPGEPASISCQASESLVHSNRNTYLHWYLQKPGQSPQLLIYKVSNRFSGVPDRFSGSGSGTDFTLKISRVEAEDVGVYYCSQNTHVPPTFGQGTKVEIERTVAAPSVFIFPPSDEQLKSGTASVVCLLNNFYPREAKVQWKVDNALQSGNSQESVTEQDSKDSTYSLSSTLTLSKADYEKHKVYACEVTHQGLSSPVTKSFNRGEC
# notes: also called Ho Ab T335_13S
# B2: GpH7-B3 variant T335_19Q/GpL16-k0 (antibody, human IgG1, kappa)
# heavy: not shown
# light: B1 light
# notes: also called Ho Ab T335_19Q
# B3: GpH7-B3 variant S267_02A/GpL16-k0 (antibody, human IgG1, kappa)
# heavy: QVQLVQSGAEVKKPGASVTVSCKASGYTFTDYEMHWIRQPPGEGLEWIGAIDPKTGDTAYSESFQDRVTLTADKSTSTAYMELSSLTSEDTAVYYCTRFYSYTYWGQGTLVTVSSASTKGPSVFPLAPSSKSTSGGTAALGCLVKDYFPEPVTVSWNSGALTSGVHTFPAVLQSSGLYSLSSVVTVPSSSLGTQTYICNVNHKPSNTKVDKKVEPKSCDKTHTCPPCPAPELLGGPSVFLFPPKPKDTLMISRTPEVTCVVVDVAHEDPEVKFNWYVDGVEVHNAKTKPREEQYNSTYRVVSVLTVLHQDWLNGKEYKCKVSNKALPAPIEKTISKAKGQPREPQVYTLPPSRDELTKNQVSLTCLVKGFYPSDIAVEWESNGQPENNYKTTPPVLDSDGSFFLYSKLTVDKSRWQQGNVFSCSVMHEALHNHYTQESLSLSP
# light: B1 light
# notes: also called Ho Ab S267_02A
# B4: GpH7-B3 variant S337_09D/GpL16-k0 (antibody, human IgG1, kappa)
# heavy: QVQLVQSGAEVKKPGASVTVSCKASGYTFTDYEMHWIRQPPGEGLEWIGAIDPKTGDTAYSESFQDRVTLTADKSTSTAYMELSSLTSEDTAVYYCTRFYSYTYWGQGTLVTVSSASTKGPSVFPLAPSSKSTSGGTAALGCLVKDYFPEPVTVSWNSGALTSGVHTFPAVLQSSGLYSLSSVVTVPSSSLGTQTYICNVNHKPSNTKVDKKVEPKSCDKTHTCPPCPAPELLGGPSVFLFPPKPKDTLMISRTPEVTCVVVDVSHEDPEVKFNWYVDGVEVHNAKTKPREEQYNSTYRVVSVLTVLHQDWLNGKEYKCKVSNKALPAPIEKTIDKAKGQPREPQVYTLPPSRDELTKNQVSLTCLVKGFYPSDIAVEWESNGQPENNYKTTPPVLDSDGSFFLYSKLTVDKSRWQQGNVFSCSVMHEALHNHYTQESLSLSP
# light: B1 light
# notes: also called Ho Ab S337_09D
# B5: GpH7-B3 variant V266_07I/GpL16-k0 (antibody, human IgG1, kappa)
# heavy: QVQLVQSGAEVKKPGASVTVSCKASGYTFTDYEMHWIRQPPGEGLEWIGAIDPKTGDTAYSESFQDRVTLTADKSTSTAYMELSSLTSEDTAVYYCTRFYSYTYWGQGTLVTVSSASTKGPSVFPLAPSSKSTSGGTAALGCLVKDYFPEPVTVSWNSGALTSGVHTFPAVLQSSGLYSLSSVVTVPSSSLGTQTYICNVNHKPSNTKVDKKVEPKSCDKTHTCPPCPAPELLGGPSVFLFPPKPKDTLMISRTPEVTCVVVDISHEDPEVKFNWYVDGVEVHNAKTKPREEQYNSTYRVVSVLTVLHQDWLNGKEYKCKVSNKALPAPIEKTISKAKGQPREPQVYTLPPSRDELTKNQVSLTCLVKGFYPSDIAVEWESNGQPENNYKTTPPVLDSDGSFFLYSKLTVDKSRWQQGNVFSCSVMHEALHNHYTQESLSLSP
# light: B1 light
# notes: also called Ho Ab V266_07I
# B6: GpH7-B3 variant T335_16H/GpL16-k0 (antibody, human IgG1, kappa)
# heavy: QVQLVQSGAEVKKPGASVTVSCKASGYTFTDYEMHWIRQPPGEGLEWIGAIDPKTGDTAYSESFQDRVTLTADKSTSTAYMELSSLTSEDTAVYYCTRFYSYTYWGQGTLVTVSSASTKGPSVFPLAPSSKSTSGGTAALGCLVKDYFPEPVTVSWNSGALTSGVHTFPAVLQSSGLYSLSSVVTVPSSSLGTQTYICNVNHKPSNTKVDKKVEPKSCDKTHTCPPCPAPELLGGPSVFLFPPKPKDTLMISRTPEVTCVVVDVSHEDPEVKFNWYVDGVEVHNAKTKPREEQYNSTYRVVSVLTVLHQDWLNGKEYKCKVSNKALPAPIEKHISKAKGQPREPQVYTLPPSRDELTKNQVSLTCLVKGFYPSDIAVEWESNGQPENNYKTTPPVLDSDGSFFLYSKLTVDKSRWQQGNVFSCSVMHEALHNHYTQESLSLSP
# light: B1 light
# notes: also called Ho Ab T335_16H
# B7: GpH7-B3 variant T335_07I/GpL16-k0 (antibody, human IgG1, kappa)
# heavy: not shown
# light: B1 light
# notes: also called Ho Ab T335_07I
# B8: GpH7-B3 variant T335_10E/GpL16-k0 (antibody, human IgG1, kappa)
# heavy: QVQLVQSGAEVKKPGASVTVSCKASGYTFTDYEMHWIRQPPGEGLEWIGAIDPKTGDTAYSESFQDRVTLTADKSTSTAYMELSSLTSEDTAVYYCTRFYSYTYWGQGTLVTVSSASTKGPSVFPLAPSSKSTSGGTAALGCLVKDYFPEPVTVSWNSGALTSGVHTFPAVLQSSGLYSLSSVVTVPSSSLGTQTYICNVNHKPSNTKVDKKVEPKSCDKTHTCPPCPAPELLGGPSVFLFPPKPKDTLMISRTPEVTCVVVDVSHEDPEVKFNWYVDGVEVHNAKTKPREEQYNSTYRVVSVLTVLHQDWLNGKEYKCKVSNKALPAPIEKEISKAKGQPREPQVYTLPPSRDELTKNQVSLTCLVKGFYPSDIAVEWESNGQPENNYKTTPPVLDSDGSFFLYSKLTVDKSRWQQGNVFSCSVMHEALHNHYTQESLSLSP
# light: B1 light
# notes: also called Ho Ab T335_10E
# B9: GpH7-B3 variant S337_10E/GpL16-k0 (antibody, human IgG1, kappa)
# heavy: not shown
# light: B1 light
# notes: also called Ho Ab S337_10E
# B10: GpH7-B3 variant Y296_18N/GpL16-k0 (antibody, human IgG1, kappa)
# heavy: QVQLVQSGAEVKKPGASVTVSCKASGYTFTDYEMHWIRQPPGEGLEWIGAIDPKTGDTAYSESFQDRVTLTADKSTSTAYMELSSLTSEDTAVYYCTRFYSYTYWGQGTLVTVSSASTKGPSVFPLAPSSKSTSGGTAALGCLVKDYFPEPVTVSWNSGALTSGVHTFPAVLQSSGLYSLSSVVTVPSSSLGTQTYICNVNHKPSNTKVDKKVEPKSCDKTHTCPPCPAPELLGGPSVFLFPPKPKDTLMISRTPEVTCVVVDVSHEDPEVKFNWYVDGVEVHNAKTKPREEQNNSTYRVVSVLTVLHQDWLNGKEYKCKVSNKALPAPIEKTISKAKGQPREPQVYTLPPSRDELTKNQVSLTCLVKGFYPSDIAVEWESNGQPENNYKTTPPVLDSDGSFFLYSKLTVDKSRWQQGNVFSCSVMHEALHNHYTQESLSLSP
# light: B1 light
# notes: also called Ho Ab Y296_18N
# B11: GpH7-B3 variant T335_15Y/GpL16-k0 (antibody, human IgG1, kappa)
# heavy: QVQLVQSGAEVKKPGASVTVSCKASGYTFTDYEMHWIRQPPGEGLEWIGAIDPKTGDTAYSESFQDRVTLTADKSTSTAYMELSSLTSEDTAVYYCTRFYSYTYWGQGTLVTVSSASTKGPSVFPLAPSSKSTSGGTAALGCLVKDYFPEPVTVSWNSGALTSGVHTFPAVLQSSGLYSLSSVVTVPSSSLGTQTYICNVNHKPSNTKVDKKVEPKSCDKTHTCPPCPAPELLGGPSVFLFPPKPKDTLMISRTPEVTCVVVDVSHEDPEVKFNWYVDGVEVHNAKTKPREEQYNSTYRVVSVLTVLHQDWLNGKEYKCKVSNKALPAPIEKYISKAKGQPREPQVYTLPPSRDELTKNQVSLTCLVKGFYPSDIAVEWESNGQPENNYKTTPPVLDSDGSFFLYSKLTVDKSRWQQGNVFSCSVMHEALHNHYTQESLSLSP
# light: B1 light
# notes: also called Ho Ab T335_15Y
# B12: GpH7-B3 variant S324_02A/GpL16-k0 (antibody, human IgG1, kappa)
# heavy: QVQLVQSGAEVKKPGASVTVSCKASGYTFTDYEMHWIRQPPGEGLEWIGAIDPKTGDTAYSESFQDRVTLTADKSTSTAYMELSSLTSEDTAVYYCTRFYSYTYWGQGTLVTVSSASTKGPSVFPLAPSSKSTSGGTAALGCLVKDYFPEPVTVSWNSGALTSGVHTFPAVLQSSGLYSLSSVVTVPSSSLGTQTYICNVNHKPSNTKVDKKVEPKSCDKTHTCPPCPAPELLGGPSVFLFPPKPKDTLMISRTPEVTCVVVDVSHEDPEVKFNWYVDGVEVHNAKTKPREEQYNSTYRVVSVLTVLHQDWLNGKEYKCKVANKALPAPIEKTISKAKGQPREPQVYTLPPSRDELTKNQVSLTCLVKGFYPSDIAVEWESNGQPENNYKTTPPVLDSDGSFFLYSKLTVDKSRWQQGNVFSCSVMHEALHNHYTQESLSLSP
# light: B1 light
# notes: also called Ho Ab S324_02A
# B13: GpH7-B3 variant S239_09D/GpL16-k0 (antibody, human IgG1, kappa)
# heavy: not shown
# light: B1 light
# notes: also called Ho Ab S239_09D
# B14: GpH7-B3 variant T335_01G/GpL16-k0 (antibody, human IgG1, kappa)
# heavy: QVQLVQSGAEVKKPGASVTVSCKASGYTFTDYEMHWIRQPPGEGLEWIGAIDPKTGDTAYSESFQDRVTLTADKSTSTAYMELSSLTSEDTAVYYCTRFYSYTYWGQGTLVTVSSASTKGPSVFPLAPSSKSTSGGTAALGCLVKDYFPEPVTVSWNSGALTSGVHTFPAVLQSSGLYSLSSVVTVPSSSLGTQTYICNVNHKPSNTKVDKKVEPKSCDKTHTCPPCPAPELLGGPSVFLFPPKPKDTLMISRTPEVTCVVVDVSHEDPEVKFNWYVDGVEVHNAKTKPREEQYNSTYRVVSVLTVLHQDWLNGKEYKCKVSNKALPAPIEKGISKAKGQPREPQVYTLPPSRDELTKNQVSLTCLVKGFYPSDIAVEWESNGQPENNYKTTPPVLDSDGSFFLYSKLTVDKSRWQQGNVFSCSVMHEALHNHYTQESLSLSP
# light: B1 light
# notes: also called Ho Ab T335_01G
# B15: GpH7-A5/GpH7-B3 variant A327_09D/GpL16-k0 (antibody, human IgG1, kappa)
# heavy 1: not shown
# heavy 2: not shown
# light: B1 light
# notes: also called He Ab A327_09D
# B16: GpH7-A5/GpH7-B3 variant E333_14T/GpL16-k0 (antibody, human IgG1, kappa)
# heavy 1: not shown
# heavy 2: not shown
# light: B1 light
# notes: also called He Ab E333_14T
# B17: GpH7-A5/GpH7-B3 variant E333_08L/GpL16-k0 (antibody, human IgG1, kappa)
# heavy 1: not shown
# heavy 2: not shown
# light: B1 light
# notes: also called He Ab E333_08L
# B18: GpH7-A5/GpH7-B3 variant E333_13S/GpL16-k0 (antibody, human IgG1, kappa)
# heavy 1: not shown
# heavy 2: not shown
# light: B1 light
# notes: also called He Ab E333_13S
# B19: GpH7-A5/GpH7-B3 variant G236_15Y/GpL16-k0 (antibody, human IgG1, kappa)
# heavy 1: not shown
# heavy 2: not shown
# light: B1 light
# notes: also called He Ab G236_15Y
# B20: GpH7-A5/GpH7-B3 variant E333_04F/GpL16-k0 (antibody, human IgG1, kappa)
# heavy 1: not shown
# heavy 2: not shown
# light: B1 light
# notes: also called He Ab E333_04F
# B21: GpH7-A5/GpH7-B3 variant A330_19Q/GpL16-k0 (antibody, human IgG1, kappa)
# heavy 1: not shown
# heavy 2: not shown
# light: B1 light
# notes: also called He Ab A330_19Q
# B22: GpH7-A5/GpH7-B3 variant G236_14T/GpL16-k0 (antibody, human IgG1, kappa)
# heavy 1: not shown
# heavy 2: not shown
# light: B1 light
# notes: also called He Ab G236_14T
# B23: GpH7-A5/GpH7-B3 variant G236_04F/GpL16-k0 (antibody, human IgG1, kappa)
# heavy 1: not shown
# heavy 2: not shown
# light: B1 light
# notes: also called He Ab G236_04F
# Molecular target: T1, FcγRIIa H (human, UniProt P12318 34-217)
# T1 sequence (P12318 34-217): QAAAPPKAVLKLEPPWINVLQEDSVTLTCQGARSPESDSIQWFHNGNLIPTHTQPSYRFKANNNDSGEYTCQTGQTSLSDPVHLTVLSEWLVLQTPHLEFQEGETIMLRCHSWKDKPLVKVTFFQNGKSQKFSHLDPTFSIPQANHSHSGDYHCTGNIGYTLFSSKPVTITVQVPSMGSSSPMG
# Assay: SPR Biacore, captured antibody, FcγR analyte; vs GpH7-B3/GpL16-k0 = 100
row,Ho/Con_2aH,Binder
1,101 % of control,B1
2,103 % of control,B2
3,120 % of control,B3
4,107 % of control,B4
5,104 % of control,B5
6,100 % of control,B6
7,105 % of control,B7
8,105 % of control,B8
9,101 % of control,B9
10,100 % of control,B10
11,102 % of control,B11
12,102 % of control,B12
13,112 % of control,B13
14,101 % of control,B14

# Molecular target: T1, FcγRIIa H
# Assay: SPR Biacore, captured antibody, FcγR analyte; vs GpH7-A5/GpH7-B3/GpL16-k0 = 100
row,He/Con_2aH,Binder
1,105 % of control,B15
2,100 % of control,B16
3,102 % of control,B17
4,101 % of control,B18
5,136 % of control,B19
6,102 % of control,B20
7,102 % of control,B21
8,103 % of control,B22
9,118 % of control,B23
